Source: paper PMC5059447

Columns and labels:
[1] = biological target: beak and feather disease virus capsid (Cap) protein, residues 14-247 (beak and feather disease virus (BFDV)); assay: crystal structure; 60-mer crystals: 0.8 M Na/K hydrogen phosphate pH 7.4, 290 K; space group F432; no ssDNA
[2] = biological target: beak and feather disease virus capsid (Cap) protein, residues 14-247 (beak and feather disease virus (BFDV)); assay: crystal structure; 60-mer co-crystallised with ssDNA oligonucleotides labelled with AlexaFluor488 and AlexaFluor647; space group F432
[3] = biological target: beak and feather disease virus capsid (Cap) protein, residues 14-247 (beak and feather disease virus (BFDV)); assay: crystal structure; 10-mer crystals: 1.1 M ammonium sulfate, Tris pH 8.5, 0.1 M iron chloride, 290 K; space group P212121; no ssDNA

## beak and feather disease virus capsid (Cap) protein, residues 14-247 (domain or fragment)
[1]
  stoichiometry N: 60
[2]
  stoichiometry N: 60
[3]
  stoichiometry N: 10
